Assay results as given in the supplement of paper PMC12636428.

System: Saccharomyces cerevisiae
Assay: transcriptional activation domain activity (GFP:mCherry ratio, weighted mean of sorted bins, harmonized to initial dataset scale) (arbitrary fluorescence ratio units); higher = stronger transcriptional activation
Settings: beta-estradiol 1 µM; induction time 4 h
Description: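 53-aa protein tiles (fungal proteins plus yeast TF control tiles) fused C-terminally to a DBD-estrogen-binding domain-mCherry synthetic TF, integrated in S. cerevisiae (URA3 locus) with a GFP reporter. Cells were induced with 1 uM beta-estradiol for 4 h at 30 C, FACS-sorted into 8 bins by GFP:mCherry ratio and barcodes sequenced. Activity is the read-weighted mean bin fluorescence (GFP:mCherry), averaged over barcodes (median 12); tiles under 50 reads were discarded. New active-learning values were harmonized by linear fit onto the scale of the initial (Hummel et al.) dataset. The assay saturates at low and high signal.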

Row | Sequence | transcriptional activation domain activity
1 | EAAHVNGLGIADLDVLLGLNGRSSDVDMTTTLPSLKPPLQNGEIKADSIDNLD | 53300
2 | EAANGDDAEPAAEQNGADIQTAAASPAESTKKDNKKKDKKRSREEEGANGAAA | 39500
3 | EAAPKEDAAPEPAPEKESKPEKAPEPKAEASKPAAPPASEKKDLKTAPKEETK | 28500
4 | EAARKETDAEGVRKTKVKKSRKRKAPEDGLEADEEGAARRTARARKTPAEAEA | 28700
5 | EAATKVDAAADGTDEVADRIADLDVSTSSNSKKKKKNSKSKKKAAKEEPVRLR | 47300
6 | EAAVTSDDEAGPAKKAKRGSVFEKFGGKFKSHKAAEKEPEAKEEAKEEEAKPA | 14000
7 | EADEEAAKAEHVHAPGEGGEGEGGGGPRRLEGKEGEREQKEIERQKKAEKDEK | 44400
8 | EADGERRSNGGSAGPRAGRRGGRDRDDRKGKPSKDSKARGEKSSEEKIGSNKE | 47500
9 | EADGEVKTKSKKSKKQKGDAADSAEADDAKSAVPEGTDATKKKKKRKTQEPSD | 30600
10 | EAEAEAAPEAEAAKPKNRGGRPKKAVLPAAAAPAPKEKEEPKPKATAGRKRKA | 33400
11 | EAEAGADGSEGGEDDGREKEEVEEEGGEEEGGEEEGREDDDTKAEAEAEELSE | 26600
12 | EAEARGSGGGGERQRDCERQREPRATRAGGDAGARDGAGARGLARGAAGVAAM | 51700
13 | EAEDAPAAAVSIEEDAPVKEVEAPAPEPEVLEPEKPKEPSPTPVAAATKPAAP | 49100
14 | EAEDDEEDADAAGGKKPKAKKRKRESTVKESAEEKKGKRKRASEQLAKQRRGK | 22600
15 | EAEDGAEKPKRGRKRKEPPAEAEANGDEPAPAAEEEEAPPAKKTKPSSSPLAK | 27800
16 | EAEDTAAARLKRAKSERMRLRTRVVQAMWAEASEEERGAAEAEVAREKEAIRA | 30400
17 | EAEEEESEKKDKKRKKDKEGKKKKKSKSSEEKETEEEKVEEKKSEESSESKKD | < 6570
18 | EAEEGGAGKRKAGSPEDTEQQQESSEKSTESNHKPATKRSTVSERPSKGKRRS | 11500
19 | EAEGEAGAEEPAAEGEAGAEGEAGGEGELEAEPAAEGEGEAEPEAGAETEAAG | 13200
20 | EAEIGVAAEDKISPQKARRKAKVEKEDGKAEEGAEGQKTTKRRRKTKEEKEEE | 14900
21 | EAEQEVQQKPAKGKKALAAAKSSAEDAEPEAAPAPKKSALKDGEASAAAPAPS | 21800
22 | EAERERLEREVEAENVRKAEEERKEKERLVKEARERAAREAAEREAAAAAAAA | 52700
23 | EAEVTATGEKSSPARVVVLRARAADAGKLVSIAEIAKREIEKGTGGQGGGSGG | 18100
24 | EAGAEEAAAGAGGRQEAASVEEAAREAARRRQQAEAGRGRRRRQPAGAEEAAE | 33300
25 | EAGNERRESSRRHDDTERRERRRHRSHDRGHDRERRHRRHRRSRSRDRDGGRE | 34300
26 | EAGREAGKAGREEKQVKQDEERTAEDTETGKHEEDRNGEQKQRDRKTRRGKIR | 25300
27 | EAKAEEAAPTEAPAADAPAAEPAAEASATEEAKPAEAAKEEKKEDRPKSPSLL | 8420

Row | Sequence | transcriptional activation domain activity
28 | EAKEGEDGEKEKPKRGRKRKEPAADAEDEAADGDAADGEEPPAKKAKPASKAA | 61800
29 | EAKKEGEHGAAPAGEHGAAPAAGGHGAEAKKEGEHGAAPAAGGHGAAPAAGGH | 21300
30 | EAKTDAETAVETQPEPKEEVATEETTKSAAKPAGAKKGGKKRAQPEKPADEAA | 12500
31 | EALMRRFISKGGFMTSRINWAIQSSGVDYLHLLIVSMEYLIRRFNLNARLAIT | 49400
32 | EALPDDLYFTDFVSPFTAAATTSVTTKTVKDTTPATNHMDDDIAMFDSLATTQ | 47700
33 | EAPAAEPVKETETAAEAAPAEAPAEAAAEETKEEKKEEKKEEKVKASKVGRRL | 44900
34 | EAPAPKKARGRPKKAAVKEDDAGSEEEAPAPKKAKGRLPKAVLKEEAESEAEA | 12900
35 | EAPAPVEEQPVQEPEPEAIPEPEPVPQETPQAYEEPPAPEPKPAPTPKAQPVQ | 23300
36 | EAPEPAADAPPPRRVRMSKPKVKTGCRECKTRRVKCDEARPACTRCTRGRREC | 36800
37 | EAPKPAPEQPKPKPVQEKPAAPAAETKEKGKAAPEPEAEDKKPARRPRKAKQP | 8950
38 | EAPREIKAKPEKKKAKPAEAAAPKKESKGKKVKADKKAGADKKADPAAAPAAG | 15300
39 | EAPVEAPIEVPVEAPVEAPVEAEKPAEEIETPAEAVVEKPAEETEKPAEAVVE | 31900
40 | EAQAEEEVAPAPKPRGRPRRAAAEAPAPEISKPTTRGRAKKVEAPAEDVIVVE | 24100
41 | EARNIVGIKNIDLYKGPLFVFWAPMNPSHVGWNGGMHLYAWRCKLLSNLPYHF | 25600
42 | EARRSTREREREEGKSSGGGKGRRGRSGKPRGGGRGAGASGANPGPGAAAGAE | 29100
43 | EARTLVMHAQQGFSFHFGCQMSLSGMMLLSYILLLPPIFTGYQLLWLLWIVFP | 61400
44 | EASLKAQKDEENESEEEGEGEEKEEGEKKEEEKKEEEKKEEEKKEDLEKLTEK | 33100
45 | EASPQPSPQPESQPAPEASPQPEPQPSSKPSPQPESQPVPEASPQPEPQPSPQ | 18200
46 | EASRSKAATAAAAAADGGKSAAAGEVEERKRKAKAEREAKKAKGALAAAAGAG | 31600
47 | EASSDGEGAASASDASGDRELVKAKAKKKKKAAGEEGDKPKKKKKSSPKKAKE | 27100
48 | EATEPAEKPKRKRGRPPGSKNKKTLAAQGGTGEASAAEPPPKRPRGRPPKRKP | 34600
49 | EAVESKPVKKAKGKPKKAIETPEPDAEESTGAEAVESKPVKRAKGKSKKAIKT | 53100
50 | EAVKKSAERRDSATKSTSPAPAKEEKKEEGKKPEKKEAKPDDKKGEEAGEDKG | 10800
51 | EAVPHQDNDSFRSEKKEGEAEVQIVEDVGSSIYGCDRTQRTLKNRHIQLIGVG | 50200
52 | EAWILHMVVILGVNYLFTFYVWDFSYTDTELWNVTCYWKLGWLLPIPYTLICF | 51000
53 | EAYPEPEEEPTMEPIDLSDDALLQVSYRLQKQNLSSSIVLLLTNRCLFISKPY | 49400
54 | EDAEATPAAAVEAEDDAMVVDSEEPKKKSKKDKKEKKDKKRKAAETTEAETAN | 16400

Row | Sequence | transcriptional activation domain activity
55 | EDAGDDAAPSAKKANVSKKRKKADESDGENDKPVKTPKTKLKLTTKTPKEPSA | 36100
56 | EDASAGEGEEKKKRKKKKVEASSDEEGSGSDGSKRKSQSKRTKSSKKGRSDNG | 40700
57 | EDCDFLGDDTCSIVNHINCQHGINFDIQFANPDSFLPGSISKEKHHLLHCPNP | 77900
58 | EDDDERRRKESSSSSRRKDRDRDDDGHERKDRKDRKHGSHRDRETDREREKRK | 33000
59 | EDDDGKGNKQKTSEKRKLQNRQAQRNFRERKEKVSCPSSPAAPRASQGTRGSC | 23900
60 | EDDEELVEEVAKKGKGKGKGKAGKAAAAIGAAEGGKGRRGRKPKAKGAEEQGE | 60600
61 | EDEAPEPEAEEKKPSAKGRRASKVKQENDEEPEPEPVKQVAKAKRGSKKAVKE | 40200
62 | EDEAQGEEGEKAKKSRKRKRDEAAEGGKQKKEKAPPKPRAKKGSAEPKPKKAA | 25900
63 | EDEASASTDNDEATTKTEKQPKKKAKAEKVADCEAVVKKKAPAKRQSKKEANQ | 41600
64 | EDEASQPAKPRARPAPSRAQNRSKEKSSKTARKRKDKSPPASQQEPEQDEGSE | 18600
65 | EDEEASAAHAAPPTTTTAGGRGKKKKGGASRKKENSAAPSKSAKASAPANIPP | 20700
66 | EDEEDAVNGTALSEEDAAERDAKLKRLREEAERKALARRSQAVQRGLPRPANV | 14900
67 | EDEEDLSSKPRCQRCRKSKKGCDRQRPCQRCKDAGLSADQCVSEDEGNGRKGR | 15700
68 | EDEEEAPAKVIKAKRAPPKRKAPAKDDDDEESAEEKPKKKKAPSKKAAAKAQA | 38200
69 | EDEEEEAEKAESKPPKKARKSKAEPAVDEDEPAVKPKKKATAASKKRKAESEE | 21100
70 | EDEEEEEEEQEEEEEKEEEVLWAAAPEGGKPVEEEEEEEVVEAEEKKPGEEDA | 24500
71 | EDEEESSKEETEKQRNKLRELIYEFIAKDVASRVELAKYWLSEEWNCAVGPQT | 35300
72 | EDEEETAAARSTSKRTRRGRVLDDSDEEDDEAGTVSPAKAATGAESEGEAGAA | 30000
73 | EDEETARPKRKSPSAVLKSHTARVSRAVFGRDAKGASAYSCGFDSTVRTWDVE | 49700
74 | EDEGEKDDDEEVKEVKEEGDNSGEEGKEGNGEEAKTEEDKPSEEQQQQAKEEA | < 6570
75 | EDENKSKEETQEKKTNEPELNENNKDIAKKGEEEEEEEEADKDNNKTKKKKKN | 27500
76 | EDEQPAAPADGRKKTVTKGADKAGLGGTPVRKNATTAGRGRKPATAKKGASQP | 32300
77 | EDGDVDMGEADDKPAEPEAEIKTEEVETAAAPEPETEPKSTPAVPAAAAAAAA | 24500
78 | EDGEQKKQVLACSFCRERKIACGRPSAHSRDRTCNQCARRCMKCEHPTESRRG | 13800
79 | EDGESTKTKDAGRKRKRSTGEGEREDKGADGTKENKKKRKLASEKEKESDKEN | 27400
